Measurements taken from publication doi:10.1101/721969.

Molecular target: Ib-pore (heptameric translocation channel of Clostridium perfringens iota toxin component Ib, after (Clostridium perfringens))
Experiment: cryo-EM structure

Substance: Ib-pore (heptameric translocation channel of Clostridium perfringens iota toxin component Ib, after (natural protein)
- stoichiometry N: 7
